{"source": "patent US20250197493A1", "about": "(Eli Lilly, published 2025)", "key": {"Human LAG-3 ECD-His [1]": {"biological_target": "T1, Human LAG-3 ECD-His (human, UniProt P18627 23-449)", "T1 construct": "It was the analyte in SPR and the antigen in HDX-MS; also called human LAG-3 soluble extracellular domain (ECD); human LAG-3-His ECD", "T1 sequence": "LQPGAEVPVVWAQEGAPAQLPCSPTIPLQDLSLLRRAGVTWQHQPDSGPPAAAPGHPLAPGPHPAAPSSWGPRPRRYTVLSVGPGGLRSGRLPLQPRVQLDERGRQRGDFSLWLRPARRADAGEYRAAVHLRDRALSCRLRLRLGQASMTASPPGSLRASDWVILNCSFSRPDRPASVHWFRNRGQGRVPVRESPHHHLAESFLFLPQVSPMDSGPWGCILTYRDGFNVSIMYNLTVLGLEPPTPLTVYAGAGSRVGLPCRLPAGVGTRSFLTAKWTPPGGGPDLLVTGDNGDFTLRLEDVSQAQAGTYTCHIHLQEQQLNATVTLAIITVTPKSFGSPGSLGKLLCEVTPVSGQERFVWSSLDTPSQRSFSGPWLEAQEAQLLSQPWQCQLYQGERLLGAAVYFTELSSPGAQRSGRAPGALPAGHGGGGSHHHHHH", "experiment": "SPR (Biacore), antibody captured, 25° C.", "experimental": "(§1) Surface Plasmon Resonance (SPR) at 37° C. is performed to determine the binding kinetics and affinity of LAG-3 antibodies to human LAG-3 and/or cynomolgus monkey LAG-3. A Biacore® T200 (Cytiva, Marlborough, MA) was used to measure the binding kinetics and affinities of Antibody A to human LAG-3 soluble extracellular domain (ECD) SEQ ID NO: 59) and to cynomolgus LAG-3 ECD (ACROBiosystems, Cat #LA3-C82H3; SEQ ID NO: 59) by surface plasmon resonance. Samples were diluted in HBS-EP+ (10 mM Hepes, 150 mM NaCl, 3 mM EDTA, 0.05% Tween-20, pH 7.6) (Teknova Cat #H8022) with 5 g/L of BSA (Jackson ImmunoResearch Cat #001-000-161) running buffer. PrismA Series S Sensor chip (Cat #29650263) is purchased from Cytiva.\n(§2) Binding was evaluated using multi-cycle kinetics by an antibody capture method. Each cycle was performed at either 37° C. or 25° C. at a flow rate of 10 μL/min for antibody capture to the PrismA chip and 100 μL/min for analyte association (with 120 sec contact time) and dissociation (900 sec). Each cycle consisted of the following steps: injection of antibody at 1 μg/mL in HBS-EP+ targeting Rmax values of 60 RU on flow cell, injection of analyte in HBS-EP+ (concentration range of 500 nM to 0.25 nM by two-fold serial dilution for human LAG-3-His ECD (SEQ ID NO: 59) followed by 900-second dissociation phase, and regeneration using 10 μL of 10 mM glycine hydrochloride, pH 1.5 over a 60-second contact time utilizing a 10 μL/min flow rate. All analyte concentrations were determined utilizing monomeric molecular weight (MW) values. Association rates (kₒₙ) and dissociation rates (koff) for LAG-3-ECD were evaluated using double referencing by flow-cell one reference subtraction in addition to 0 nM blank subtraction and fit to “1:1 (Langmuir) binding” model in the BIAevaluation software version 4.1. The dissociation constant (KD) was calculated from the binding kinetics according to the relationship KD=Koff/Kₒₙ. Stoichiometry=[RUₘₐₓ/RUcaptured]/[MWanalyte/MWantibody] where MW_{Antibody A} is 150 kDa. Values are reported as mean±standard deviation."}, "Cynomolgus LAG-3 ECD-His [2]": {"biological_target": "T2, Cynomolgus LAG-3 ECD-His (cynomolgus monkey)", "T2 construct": "Bought protein (ACROBiosystems); also called ACROBiosystems Cat #LA3-C82H3", "T2 chain": "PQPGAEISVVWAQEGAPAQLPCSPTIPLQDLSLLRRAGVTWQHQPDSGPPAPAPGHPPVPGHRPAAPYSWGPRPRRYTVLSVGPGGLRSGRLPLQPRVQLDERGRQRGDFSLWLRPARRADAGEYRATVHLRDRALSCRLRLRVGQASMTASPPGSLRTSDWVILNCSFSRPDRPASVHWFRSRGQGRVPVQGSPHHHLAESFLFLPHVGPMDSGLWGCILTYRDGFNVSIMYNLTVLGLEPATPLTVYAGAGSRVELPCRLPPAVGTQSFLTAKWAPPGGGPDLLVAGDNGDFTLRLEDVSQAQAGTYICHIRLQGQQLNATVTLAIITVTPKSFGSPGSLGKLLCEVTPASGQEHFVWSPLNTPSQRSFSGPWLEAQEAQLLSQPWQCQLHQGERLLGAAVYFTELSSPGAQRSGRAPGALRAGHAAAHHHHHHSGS", "experiment": "SPR (Biacore), antibody captured, 25° C.", "experimental": "as §1, §2"}, "Human LAG-3 ECD-His [3]": {"biological_target": "T1, Human LAG-3 ECD-His", "experiment": "SPR (Biacore), antibody captured, 37° C.", "experimental": "as §1, §2"}, "Cynomolgus LAG-3 ECD-His [4]": {"biological_target": "T2, Cynomolgus LAG-3 ECD-His", "experiment": "SPR (Biacore), antibody captured, 37° C.", "experimental": "as §1, §2"}, "[5]": {"biological_target": "T3, cell membrane-expressed human LAG-3 (human, UniProt P18627 23-525)", "T3 construct": "also called cell surface human LAG-3; hLAG-3", "T3 sequence": "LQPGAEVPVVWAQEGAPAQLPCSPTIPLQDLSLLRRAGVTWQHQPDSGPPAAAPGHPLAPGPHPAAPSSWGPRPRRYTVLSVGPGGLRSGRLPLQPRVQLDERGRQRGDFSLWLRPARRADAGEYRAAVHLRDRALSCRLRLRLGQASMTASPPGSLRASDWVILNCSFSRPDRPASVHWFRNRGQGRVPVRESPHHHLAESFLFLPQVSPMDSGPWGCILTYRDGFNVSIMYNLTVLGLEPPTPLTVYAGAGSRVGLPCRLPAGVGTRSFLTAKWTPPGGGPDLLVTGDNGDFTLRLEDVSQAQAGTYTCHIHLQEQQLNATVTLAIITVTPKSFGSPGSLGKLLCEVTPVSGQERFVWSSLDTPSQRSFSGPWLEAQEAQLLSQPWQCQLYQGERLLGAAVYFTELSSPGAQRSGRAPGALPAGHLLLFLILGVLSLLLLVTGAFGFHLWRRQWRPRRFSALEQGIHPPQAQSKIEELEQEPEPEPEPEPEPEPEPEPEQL", "experiment": "flow cytometry, SEB-activated human PBMCs, CD4 T cells, percent of cells bound", "experimental": "(§3) Cells were incubated with a 12 point, 4-fold serial dilutions of Antibody A or Isotype hG1, starting at 100 μg/mL, in PBS+2% FBS for 30 minutes at 4° C. The samples were washed and stained with 1 μg/mL Alexa Fluor 647 AffiniPure F (ab′) 2 Fragment Goat Anti-Human IgG, Fcy fragment specific (Jackson Immuno Research 109-606-098) in PBS+2% FBS for 30 minutes at 4° C. After washing thoroughly human samples were stained with CD3 Biolegend #300424, CD4 Biolegend #300512, CD8 Biolegend #301006, PD-1 Biolegend 329906, non-competing LAG3 418611 conjugated in house BN20-2739-10, Live/Dead Near IR Invitrogen L34975A, CD19 Biolegend 302218, CD33 Biolegend 366614, and CD56 Biolegend 362512 in PBS+2% FBS for 30 minutes at 4° C. Cyno samples were stained with CD3 BD 557917, CD4 BD 566910, CD8 BD 557746, PD-1 Biolegend 329906, non-competing LAG3 418611 conjugated in house BN20-2739-10, and Live/Dead Near IR Invitrogen L34975A in PBS+2% FBS for 30 minutes at 4° C. Cells were washed and processed on a BioRad ZE5 cytometer and data was analyzed with FlowJo software (BD Biosciences). Percent of cells bound by the respective antibody is quantified and graphed with Prism (Graphpad, San Diego, CA)."}, "[6]": {"biological_target": "T3, cell membrane-expressed human LAG-3", "experiment": "flow cytometry, SEB-activated human PBMCs, CD8 T cells, percent of cells bound", "experimental": "as §3"}, "[7]": {"biological_target": "T4, cell membrane-expressed cynomolgus LAG-3 (cynomolgus monkey)", "T4 construct": "whole, on cells; also called cell surface cynomolgus monkey LAG-3", "experiment": "flow cytometry, SEB-activated cynomolgus PBMCs, CD4 T cells, percent of cells bound", "experimental": "as §3"}, "[8]": {"biological_target": "T4, cell membrane-expressed cynomolgus LAG-3", "experiment": "flow cytometry, SEB-activated cynomolgus PBMCs, CD8 T cells, percent of cells bound", "experimental": "as §3"}}}
{"binder": "Antibody A (antibody, human IgG1, kappa, V domains shown, Human IgG1 heavy chain, kappa light chain; also called anti-human LAG-3 agonist antibody) VH: QVQLQESGPGLVKPSQTLSLTCTVSGGSISSGGYYWSWIRQHPGKGLEWIGYIYYSGITYYNPSLKSRVTISVDTSKNQFSLKLSSVTAADTAVYYCARSAVTTPFDYWGQGTLVTVSS VL: not shown", "values": [{"measurement": "Kd", "setting": "Human LAG-3 ECD-His [1]", "result": 0.14, "unit": "nM"}, {"measurement": "koff", "setting": "Human LAG-3 ECD-His [1]", "result": 0.0012, "unit": "s⁻¹"}, {"measurement": "kon", "setting": "Human LAG-3 ECD-His [1]", "result": "8.3e+06", "unit": "M⁻¹ s⁻¹"}, {"measurement": "Kd", "setting": "Cynomolgus LAG-3 ECD-His [2]", "result": 0.038, "unit": "nM"}, {"measurement": "koff", "setting": "Cynomolgus LAG-3 ECD-His [2]", "result": 0.00015, "unit": "s⁻¹"}, {"measurement": "kon", "setting": "Cynomolgus LAG-3 ECD-His [2]", "result": "3.9e+06", "unit": "M⁻¹ s⁻¹"}, {"measurement": "Kd", "setting": "Human LAG-3 ECD-His [3]", "result": 0.064, "unit": "nM"}, {"measurement": "koff", "setting": "Human LAG-3 ECD-His [3]", "result": 0.0013, "unit": "s⁻¹"}, {"measurement": "kon", "setting": "Human LAG-3 ECD-His [3]", "result": "2.1e+07", "unit": "M⁻¹ s⁻¹"}, {"measurement": "Kd", "setting": "Cynomolgus LAG-3 ECD-His [4]", "result": 0.13, "unit": "nM"}, {"measurement": "koff", "setting": "Cynomolgus LAG-3 ECD-His [4]", "result": 0.00035, "unit": "s⁻¹"}, {"measurement": "kon", "setting": "Cynomolgus LAG-3 ECD-His [4]", "result": "2.7e+06", "unit": "M⁻¹ s⁻¹"}, {"measurement": "EC50", "setting": "[5]", "result": 0.0156, "unit": "µg/mL"}, {"measurement": "EC50", "setting": "[6]", "result": 0.0155, "unit": "µg/mL"}, {"measurement": "EC50", "setting": "[7]", "result": 0.857, "unit": "µg/mL"}, {"measurement": "EC50", "setting": "[8]", "result": 0.183, "unit": "µg/mL"}]}
